{
  "source": "patent US20230001007A1",
  "about": "“Glycan-Interacting Compounds and Methods of Use” (Seagen Inc., priority 2017, published 2023)",
  "key": {"[1]": {"biological_target": "bovine submaxillary mucin (BSM)", "experiment": "BSM ELISA, periodate-sensitive STn binding", "details": "periodate-sensitive STn binding curve, 0 to 100 nM", "method": "For BSM ELISA analysis, antibodies were screened over a concentration range of 0 to 100 nM on bovine submaxillary mucin (BSM) coated wells. A subset of wells were treated with mild periodate solution before antibody introduction to remove the side chain on terminal sialic acid residues (destroying the STn antigen). Optical densities of periodate and non-periodate-treated wells were determined and log transformed then fit to a nonlinear regression model to obtain a dose response curve. Optical density values obtained from periodate-treated wells were subtracted from non-periodate treated wells to obtain a periodate-sensitive STn binding curve and corresponding EC50 values."}, "[2]": {"test_system": "MDA-MB-231-STn cells", "experiment": "Flow cytometry-based binding analysis", "details": "0 to 300 nM, read-out: MDA-MB-231-STn cell binding [EC50 (nM)]", "method": "Humanized IgG1 antibodies, prepared as described above, were subjected to characterization analysis including flow cytometry-based binding analysis with MDA-MB-231-STn cells; binding analysis by BSM ELISA; and glycan array analysis.\nIn flow cytometry-based binding studies, antibodies were screened over a concentration range of 0 to 300 nM, comparing binding to MDA-MB-231 cells with or without transfection-induced STn expression. Binding was determined using an anti-human APC conjugated secondary antibody and only live cells were considered (based on propidium iodide negative gating). 5,000 events were collected per sample on average. Data were analyzed using FlowJo software (Asland, Oreg.) and resulting APC means and % APC were obtained. […] Human isotype IgG1 antibody was used as an isotype negative control. Epidermal growth factor receptor (LA22, EMD Millipore, Billerica, Mass.) was used as a positive control."}, "[3]": {"test_system": "array glycans (AcSTn, GcSTn, Tn and others)", "experiment": "Glycan array analysis", "type": "binding", "set-up": "key: Group 1: capable of binding AcSTn and GcSTn, if they bind to glycans 5, 6, 23 and 24; Group 2: capable of binding STn as well as some related structures that include an O-linkage to serine or threonine, if they bind to glycans 5, 6, 23, 24, 27 and 31; Group 3: capable of binding STn, but may also bind a broader set of related structures) if they bind glycans 5, 6, 23, 24, 17, 3, 19, 37, 27 and 31; Group 4: capable of binding to both AcSTn and GcSTn as well as the un-sialylated Tn antigen (therefore having broader specificity) if they bind to glycans 5, 6, 23, 24 and 47", "method": "Optimized glycan arrays are utilized to test antibody affinity and specificity for multiple glycans in a single experiment. Glycan arrays include 71 chemically synthesized and well-defined glycans, most of which are Neu5Ac and Neu5Gc glycan pairs.\n300 ml of epoxy blocking buffer is prepared by combining 15 ml of 2 M Tris buffer (pH 8) with 0.9 ml of 16.6 M ethanolamine and 284.1 ml of distilled water. The solution is brought to a final pH of 9.0 with HCl. The solution is filtered using a […] nitrocellulose membrane. The epoxy buffer solution as well as 1 L of distilled water are pre-warmed to 50° C. Glass slides are arranged in a slide holder and quickly submerged in a staining tub with the warmed epoxy blocking buffer. Slides are incubated in the epoxy blocking buffer for 1 hour at 50° C. with periodic shaking to deactivate epoxy binding sites. Next, slides are rinsed and blocked with PBS with 1% OVA at 25° C. for one hour. Serum samples with polyclonal antibodies (1:1000) or purified monoclonal antibodies (1 ug/mL), are diluted in PBS with 1% OVA and added to the glycan array for one hour at 25° C. After extensive washing, binding of antibodies are detected by incubating glycan microarray slides with Cy3-conjugated anti-mouse IgG (Jackson Immunoresearch, West Grove, Pa.) for one hour. Slides are then washed extensively, dried and scanned with a Genepix 4000B scanner (Laser at 100%; gain at 350; 10 μm pixels). Raw data from scanned images are extracted using the Genepix software and analysis of raw data is carried out.\nBased on array analysis, antibodies are classified according to array glycan binding profile. Antibodies are classified as “Group 1” antibodies, capable of binding AcSTn and GcSTn, if they bind to glycans 5, 6, 23 and 24. Such antibodies are referred to as Pan-STn antibodies due to their ability to associate with a wider range of STn structures and the portion of STn indicated by the largest ellipse in FIG. 1A. […]"}, "[4]": {"test_system": "Primary patient CRC samples", "experiment": "STn expression in primary patient CRC samples by flow cytometry", "type": "cell-based", "details": "% of viable CD45−/CD34− population", "excerpt": "Primary patient CRC samples were probed by flow cytometry with hSIA101 and two commercial antibodies B72.3 and CC49. All 10 samples tested were STn positive. In the table, % STn is expressed as % of viable CD45−/CD34− population. STn expression was often more robustly identified with hSIA101 than the commercial antibodies."}, "[5]": {"test_system": "HT29", "experiment": "STn expression on CRC line by flow cytometry using anti-STn antibodies", "type": "cell-based", "details": "detected using hSIA101", "method": "(§1) Mouse antibodies were characterized for in vitro and in vivo efficacy in breast, colon and ovarian cancer models. The antibodies were used to identify CRC cell lines that express STn on the surface. Five CRC lines were incubated in vitro and grown to confluency. % STn expression was determined by flow cytometry using anti-STn antibodies. Approximately 30-70% of cultured SW403, COL0205 and LS174T cells naturally expressed STn on the surface (as detected using mSIA103), while HT29 and RKO had very little to no detectable STn (as detected using hSIA101) on their cell surface (see Table 6)."}, "[6]": {"test_system": "RKO", "experiment": "STn expression on CRC line by flow cytometry using anti-STn antibodies", "type": "cell-based", "details": "detected using hSIA101", "method": "as §1"}},
  "data": [
    {"molecule": "hSIA101 (antibody, V domains shown) VH: EVQLVQSGAEVKKPGASVKVSCKASGYTFTDHAIHWVRQAPGQGLEWMGYFSPGNDDIKYNEKFRGRVTMTADKSSSTAYMELRSLRSDDTAVYFCKRSLSTPYWGQGTLVTVSS VL: DIVMTQSPDSLAVSLGERATINCKSSQSLLNRGNHKNYLTWYQQKPGQPPKLLIYWASTRESGVPDRFSGSGSGTDFTLTISSLQAEDVAVYYCQNDYTYPYTFGQGTKVEIK", "values": [
      {"measurement": "EC50", "setting": "[1]", "result": 4.2, "unit": "nM"},
      {"measurement": "EC50", "setting": "[2]", "result": 2, "unit": "nM"},
      {"measurement": "Array glycan binding profile", "setting": "[3]", "result": "Group 1"},
      {"measurement": "% STn+", "setting": "[4]; Sample 160093-2, Colon", "result": 22.9, "unit": "%"},
      {"measurement": "% STn+", "setting": "[4]; Sample 160101-2, Colon", "result": 10, "unit": "%"},
      {"measurement": "% STn+", "setting": "[4]; Sample 160102-2, Colon", "result": 12.9, "unit": "%"},
      {"measurement": "% STn+", "setting": "[4]; Sample 160104-2, Colon Met to Liver", "result": 47.8, "unit": "%"},
      {"measurement": "% STn+", "setting": "[4]; Sample 160115-2, Colon", "result": 5.4, "unit": "%"},
      {"measurement": "% STn+", "setting": "[4]; Sample 160127-2, Colon", "result": 4.2, "unit": "%"},
      {"measurement": "% STn+", "setting": "[4]; Sample 160149-1, Colon", "result": 22.7, "unit": "%"},
      {"measurement": "% STn+", "setting": "[4]; Sample 160151-1, Colon", "result": 19.6, "unit": "%"},
      {"measurement": "% STn+", "setting": "[4]; Sample 169068-1, Colon", "result": 10.9, "unit": "%"},
      {"measurement": "% STn+", "setting": "[4]; Sample 1601666, Colon", "result": 29.4, "unit": "%"},
      {"measurement": "% STn expression", "setting": "[5]", "result": "Low to non-detectable"},
      {"measurement": "% STn expression", "setting": "[6]", "result": "Low to non-detectable"}
    ]}
  ]
}
